Patent US7345026 (INSTITUT PASTEUR, dated 2008)

Molecular target: T1, HLA-A2.1 molecules on T2 (TAP-, HLA-A2.1+) cells (human)
T1 construct: MHC class I molecule to which peptides were added from outside; Surface HLA-A2.1 was detected with mAb BB7.2; also called H.A.-A2.1
Test: T2 cells, peptide binding by surface HLA-A2.1 (BB7.2) flow cytometry; ratio of concentrations reaching 20% of maximal binding

| Binder | RA (relative affinity) |
| --- | --- |
| VLYRYGSFSV (synthetic peptide) [gp100 476-485 epitopic peptide] | 10 ratio to HIV 1 rt.476 reference peptide |
| MLLAVLYCL (synthetic peptide) [Tyrosinase 1-9 epitopic peptide] | > 60 ratio to HIV 1 rt.476 reference peptide |
| LLDGTATLRL (synthetic peptide) [gp100 457-466 epitopic peptide] | 1.65 ratio to HIV 1 rt.476 reference peptide |
| YMDGTMSQV (synthetic peptide; also called Tyrosinase.368-D) [Tyrosinase 368-376-D epitopic peptide] | 2.27 ratio to HIV 1 rt.476 reference peptide |
| ILTVILGVL (synthetic peptide) [Melan-A/MART-1 32-40 epitopic peptide] | 21.1 ratio to HIV 1 rt.476 reference peptide |
